The experiment has as its target LC3-trap Wx8 (covalently labelled with an N-hydroxysuccinimide (RED-NHS) dye in the MST). In words: MST.

B1: recombinant GABARAP (natural protein)
chain: MKFVYKEEHPFEKRRSEGEKIRKKYPDRVPVIVEKAPKARIGDLDKKKYLVPSDLTVGQFYFLIRKRIHLRAEDALFFFVNNVIPPTSATMGQLYQEHHEEDFFLYIAYSDESVYGL
As for B1, binding was put at a Kd of 24.8 nM.

B2: recombinant LC3C (natural protein)
chain: MPPPQKIPSVRPFKQRKSLAIRQEEVAGIRAKFPNKIPVVVERYPRETFLPPLDKTKFLVPQELTMTQFLSIIRSRMVLRATEAFYLLVNNKSLVSMSATMAEIYRDYKDEDGFVYMTYASQETFG
For B2, the affinity, expressed as Kd, was 3.4 nM.

Source of the values: article PMC9090809 (2022).
